T1: GST-Nop58-447 (S. cerevisiae, UniProt Q12499 1-447)
T1 construct: Cloned in pGEX-6P-1 (BamHI-XhoI); source: E. coli BL21(DE3) pRIL, purified (glutathione Sepharose 4B); not shown: GST, N-terminal, kept
T1 sequence (looked up): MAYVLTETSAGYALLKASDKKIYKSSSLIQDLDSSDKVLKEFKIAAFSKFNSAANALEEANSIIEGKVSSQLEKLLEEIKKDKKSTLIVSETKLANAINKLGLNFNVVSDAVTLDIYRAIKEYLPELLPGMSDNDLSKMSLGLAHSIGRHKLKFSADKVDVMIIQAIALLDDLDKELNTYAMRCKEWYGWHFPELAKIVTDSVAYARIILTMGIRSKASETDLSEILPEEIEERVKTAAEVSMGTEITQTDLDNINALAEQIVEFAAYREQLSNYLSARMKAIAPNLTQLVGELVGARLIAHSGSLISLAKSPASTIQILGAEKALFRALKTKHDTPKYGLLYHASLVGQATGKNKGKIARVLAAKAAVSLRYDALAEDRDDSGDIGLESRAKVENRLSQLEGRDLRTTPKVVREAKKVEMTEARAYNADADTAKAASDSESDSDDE

B1: full-length Pih1 (natural protein, S. cerevisiae, UniProt P38768 1-344, looked up)
chain: MADFLLRPIKQRHRNEDKYVSVDAADGSVSKIEPIADFVIKTKLLSANGPEKLQDGRKVFINVCHSPLVPKPEVDFNARIVFPLIIQNEWEIPIITSCYRMDHDKKGQECYVWDCCINSDCSRWICDDIQLREILVEWCLESCEIRDSVVLCRDRIAFPKMKKKGAELPALEVLNDELHQDYKAKMHKIIEEEAGDPMSILRGRNDDGDDNNDPDDGTLPPLFPIENKISGAKIEEIDKNEIAHRNLKQAPAPAPAPHEQQEDVPEYEVKMKRFKGAAYKLRILIENKAPNSKPDRFSPSYNFAENILYINGKLSIPLPRDIVVNAADIKIFHIRKERTLYIYI
notes: Pih1, S. cerevisiae, 344 amino acids
B2: GST-Nop58-NM (domain or fragment, S. cerevisiae, UniProt Q12499 1-284, looked up)
chain: MAYVLTETSAGYALLKASDKKIYKSSSLIQDLDSSDKVLKEFKIAAFSKFNSAANALEEANSIIEGKVSSQLEKLLEEIKKDKKSTLIVSETKLANAINKLGLNFNVVSDAVTLDIYRAIKEYLPELLPGMSDNDLSKMSLGLAHSIGRHKLKFSADKVDVMIIQAIALLDDLDKELNTYAMRCKEWYGWHFPELAKIVTDSVAYARIILTMGIRSKASETDLSEILPEEIEERVKTAAEVSMGTEITQTDLDNINALAEQIVEFAAYREQLSNYLSARMKAIA
notes: Nop58, S. cerevisiae, N-terminal and middle domains (lacks the C-terminal domain); end worked out from the reverse primer NOP58-852-XhoI-R (nucleotide 852 = codon 284); also called pGST-Nop58-NM; pGEX-Nop58-NM; source: E. coli BL21(DE3) pRIL, purified (glutathione Sepharose 4B); not shown: GST, N-terminal, kept
B3: Pih1(1–230) (domain or fragment, S. cerevisiae, UniProt P38768 1-230, looked up)
chain: MADFLLRPIKQRHRNEDKYVSVDAADGSVSKIEPIADFVIKTKLLSANGPEKLQDGRKVFINVCHSPLVPKPEVDFNARIVFPLIIQNEWEIPIITSCYRMDHDKKGQECYVWDCCINSDCSRWICDDIQLREILVEWCLESCEIRDSVVLCRDRIAFPKMKKKGAELPALEVLNDELHQDYKAKMHKIIEEEAGDPMSILRGRNDDGDDNNDPDDGTLPPLFPIENKIS
notes: Pih1, S. cerevisiae, N-terminal domain, residues 1-230 of 344; also called N-terminal domain of Pih1
B4: GST-Nop58-C (domain or fragment, S. cerevisiae, UniProt Q12499 285-447, looked up)
chain: PNLTQLVGELVGARLIAHSGSLISLAKSPASTIQILGAEKALFRALKTKHDTPKYGLLYHASLVGQATGKNKGKIARVLAAKAAVSLRYDALAEDRDDSGDIGLESRAKVENRLSQLEGRDLRTTPKVVREAKKVEMTEARAYNADADTAKAASDSESDSDDE
notes: also called pGST-Nop58-C; pGEX-Nop58-C; source: E. coli BL21(DE3) pRIL, purified (glutathione Sepharose 4B; MagneGST Glutathione Particles for the reconstitution with Rvb1/2 or R2TP); not shown: GST, N-terminal, kept
B5: GST-Nop58-MC (domain or fragment, S. cerevisiae, UniProt Q12499 158-447, looked up)
chain: KVDVMIIQAIALLDDLDKELNTYAMRCKEWYGWHFPELAKIVTDSVAYARIILTMGIRSKASETDLSEILPEEIEERVKTAAEVSMGTEITQTDLDNINALAEQIVEFAAYREQLSNYLSARMKAIAPNLTQLVGELVGARLIAHSGSLISLAKSPASTIQILGAEKALFRALKTKHDTPKYGLLYHASLVGQATGKNKGKIARVLAAKAAVSLRYDALAEDRDDSGDIGLESRAKVENRLSQLEGRDLRTTPKVVREAKKVEMTEARAYNADADTAKAASDSESDSDDE
notes: Nop58, S. cerevisiae, middle and C-terminal domains (lacks the N-terminal domain and the KKE/D repeat); start worked out from the forward primer NOP58-472-BamHI-F (nucleotide 472 = codon 158); The forward primer adds an ATG before the first Nop58 codon; also called pGST-Nop58-MC; pGEX-Nop58-MC; source: E. coli BL21(DE3) pRIL, purified (glutathione Sepharose 4B); not shown: GST, N-terminal, kept

Conditions in all cases: both partners purified
The target in one test is T1, GST-Nop58-447. Nature of the test: pull-down; GST-Nop58 variants immobilised on glutathione Sepharose 4B, incubated with Pih1 or Pih1(1–230) 40 min at 30°C in GST lysis buffer (1×PBS, 0.1% NP40, 10% glycerol, 1 mM DTT); washes with 0.5 M NaCl; Ponceau S and Western blot.
The target of the test “full-length Pih1” is B1. The description is as above.
The target in the test “GST-Nop58-NM” is B2. The test is described as above.
In the test “GST-Nop58-MC” the target is B5. The test is described as above.
The target of the test “Pih1(1–230)” is B3. The description is as above.
Test [1] addresses T2, R2TP complex (recombinant, preformed) (S. cerevisiae, UniProt Q03940 1-463; Q12464 1-471; P25638 1-111; P38768 1-344).
T2 construct: Rvb1, S. cerevisiae; Rvb2, S. cerevisiae, untagged; Tah1, S. cerevisiae; Pih1, S. cerevisiae, untagged; also called preformed R2TP complex purified from E. coli; source: preformed complex purified from E. coli; not shown: His6 (HV-tag, with TEV site), N-terminal, cleaved; copies: + + +
Nature of the test: pull-down; GST-Nop58-C on MagneGST glutathione particles incubated with 0.1 μM preformed Rvb1/2 or R2TP complex at 4°C for 16 h; washed with buffer H with 0.1 M KCl at 23°C; Western blot.

A further test has as its target T3, Rvb1/Rvb2 complex (S. cerevisiae, UniProt Q03940 1-463; Q12464 1-471).
T3 construct: Rvb1, S. cerevisiae; Rvb2, S. cerevisiae, untagged; also called Rvb1/2; preformed Rvb1/2; source: E. coli BL21(DE3) pRIL, co-expressed (pCOLADuet-1), purified (Ni-NTA, TEV protease, Superdex 200); not shown: His6 (HV-tag, with TEV site), N-terminal, cleaved
The test is described as above.

T3 sequence (Q03940 whole entry, chain 1 of 2): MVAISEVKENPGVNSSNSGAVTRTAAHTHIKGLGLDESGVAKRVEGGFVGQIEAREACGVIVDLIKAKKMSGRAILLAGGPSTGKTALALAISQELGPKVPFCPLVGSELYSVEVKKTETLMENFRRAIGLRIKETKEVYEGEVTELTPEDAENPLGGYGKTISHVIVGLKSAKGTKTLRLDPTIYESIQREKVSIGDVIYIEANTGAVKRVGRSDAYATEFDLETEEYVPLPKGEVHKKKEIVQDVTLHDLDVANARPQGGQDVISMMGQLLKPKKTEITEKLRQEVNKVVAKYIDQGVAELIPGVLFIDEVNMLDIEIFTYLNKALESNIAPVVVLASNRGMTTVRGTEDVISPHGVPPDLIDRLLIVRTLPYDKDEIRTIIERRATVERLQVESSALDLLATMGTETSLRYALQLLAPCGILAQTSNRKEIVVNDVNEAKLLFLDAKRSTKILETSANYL
T3 sequence (Q12464 whole entry, chain 2 of 2): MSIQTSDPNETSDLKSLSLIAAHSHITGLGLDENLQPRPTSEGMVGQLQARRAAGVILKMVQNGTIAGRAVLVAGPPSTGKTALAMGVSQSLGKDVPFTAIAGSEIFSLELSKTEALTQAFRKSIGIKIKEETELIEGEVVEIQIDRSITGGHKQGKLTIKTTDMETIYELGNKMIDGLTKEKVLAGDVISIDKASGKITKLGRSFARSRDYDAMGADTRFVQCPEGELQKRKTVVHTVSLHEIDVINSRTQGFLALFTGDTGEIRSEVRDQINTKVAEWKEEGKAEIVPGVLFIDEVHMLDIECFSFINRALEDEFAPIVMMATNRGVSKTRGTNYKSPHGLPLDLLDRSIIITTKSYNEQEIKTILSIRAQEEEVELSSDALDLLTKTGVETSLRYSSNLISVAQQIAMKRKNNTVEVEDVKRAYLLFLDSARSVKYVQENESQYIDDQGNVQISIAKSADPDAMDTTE
T2 sequence (Q03940 whole entry, chain 1 of 3): as the sequence (Q03940 whole entry, chain 1 of 2) above
T2 sequence (Q12464 whole entry, chain 2 of 3): as the sequence (Q12464 whole entry, chain 2 of 2) above
T2 sequence (P25638 whole entry, chain 3 of 3): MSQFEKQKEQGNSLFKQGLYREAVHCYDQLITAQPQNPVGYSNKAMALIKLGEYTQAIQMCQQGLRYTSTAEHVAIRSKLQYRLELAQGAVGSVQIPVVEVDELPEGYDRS

Consider B1, for which the binding result with GST-Nop58-447 is “binds”.
B2: the binding result with full-length Pih1 is listed as “binds”.
As for B3, the binding result with GST-Nop58-NM, in the test with GST-Nop58-447 and in the test with GST-Nop58-MC was “binds” throughout.
Turning to B4, the binding result (with Pih1(1–230); with full-length Pih1; in test [1]; in the test with Rvb1/Rvb2 complex) was “binds” each time.
On to B5, for which the binding result in the test with full-length Pih1 is “binds”.
